Experimental findings from the supplement of paper PMC7877785 are described below.

± gives the uncertainty stated by the source.

A short description of this data set: self-splicing fitness, log relative to wild type (ln ratio); higher = more splicing; Tetrahymena group I intron in knt gene, E. coli kanamycin selection, DiMSum; sequences stand for … in CUCUCU…GGAGGGAAAAGUUAUCAGGCAUGCACCUGGUAGCUAGUCUUUAAACCAAUAGAUUGCAUCGGUUUAAAAGGCAAGACCGUCAAAUUGCGGGAAAGGGGUCAACAGCCGUUCAGUACCAAGUCUCAGGGGAAACUUUGAGAUGGCCUUGCAAAGGGUAUGGUAAUAAGCUGACGGACAUGGUCCUAACCACGCAGCCAAGUCCUAAGUCAACAGAUCUUCUGUUGAUAUGGAUGCAGUUCACAGACUAAAUGUCGGUCGGGGAAGAUGUAUUCUUCUCAUAAGAUAUAGUCGGACCUCUCCUUAAUGGGAGCUAGCGGAUGAAGUGAUGCAACACUGGAGCCGCUGGGAACUAAUUUGUAUGCGAAAGUAUAUUGAUUAGUUUUGGAGUACUCGUGGUCG
Put shortly: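 A randomised library covering all eight P1ex-region intron nucleotides was built with the intron in the knt kanamycin-resistance gene on pET-22b(+) and held in E. coli BL21(DE3). Cells were grown overnight at 37°C or 30°C on LB agar, with or without 25 μg/mL kanamycin, plus 100 μg/mL carbenicillin, 50 μM IPTG and 0.2% rhamnose, and pooled colonies were amplicon-sequenced on an Illumina HiSeq 2500. DiMSum fitness is the error-weighted combination of wild-type-normalised replicate fold changes, kanamycin versus none.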

For the sequence UAACAGCAAUAUUACGUUCC, the “self-splicing fitness (ln)” value (30 °C) was -2.23 ± 0.11 and the “self-splicing fitness (ln)” value (37 °C) is -2.28 ± 0.18.

For UAACAGCAAUAUUACGUUGG, the “self-splicing fitness (ln)” value runs as follows: (30 °C) -1.67 ± 0.083; (37 °C) -0.828 ± 0.096.

Take UAAGAGCAAUAUUACGAAGA: the “self-splicing fitness (ln)” value (37 °C) was -1.98 ± 0.38.

UAAGAGCAAUAUUACGAGCC: the “self-splicing fitness (ln)” value is -3.56 ± 0.25 (30 °C) and -2.26 ± 0.24 (37 °C).

On to UAAGAGCAAUAUUACGAUAG, for which the “self-splicing fitness (ln)” value (30 °C) is -3.46 ± 0.31 and the “self-splicing fitness (ln)” value (37 °C) is -2.12 ± 0.33.

Take UAAGAGCAAUAUUACGAUCU: the “self-splicing fitness (ln)” value runs as follows: (30 °C) -2.51 ± 0.24; (37 °C) -2.86 ± 0.36.

With UAAGAGCAAUAUUACGAUGA, the “self-splicing fitness (ln)” value is -2.15 ± 0.22 (30 °C) and -2.63 ± 0.38 (37 °C).

For the sequence UAAGAGCAAUAUUACGCAAC, the “self-splicing fitness (ln)” value (37 °C) is -2.19 ± 0.45.

On to UAAGAGCAAUAUUACGCAUG, for which the “self-splicing fitness (ln)” value was -2.75 ± 0.28 (30 °C) and -1.2 ± 0.23 (37 °C).

As to UAAGAGCAAUAUUACGCGUC, the “self-splicing fitness (ln)” value is -3.81 ± 0.25 (30 °C) and -2.29 ± 0.23 (37 °C).

As to UAAGAGCAAUAUUACGCUCG, the “self-splicing fitness (ln)” value (37 °C) is -0.845 ± 0.23.

For the sequence UAAGAGCAAUAUUACGGAAC, the “self-splicing fitness (ln)” value by setting is: (30 °C) -2.54 ± 0.33; (37 °C) -3.2 ± 0.46.

For the sequence UAAGAGCAAUAUUACGGGCU, the “self-splicing fitness (ln)” value (37 °C) is -2.53 ± 0.32.

Consider UAAGAGCAAUAUUACGGGGC, for which the “self-splicing fitness (ln)” value reads like this: (30 °C) -4 ± 0.42; (37 °C) -2.83 ± 0.32.

UAAGAGCAAUAUUACGGGUU: the “self-splicing fitness (ln)” value reads like this: (30 °C) -3.51 ± 0.29; (37 °C) -2.06 ± 0.31.

On to UAAGAGCAAUAUUACGGUGC, for which the “self-splicing fitness (ln)” value (30 °C) was -3.43 ± 0.28.

Regarding UAAGAGCAAUAUUACGUAGA, the “self-splicing fitness (ln)” value is -3.89 ± 0.23 (30 °C) and -1.34 ± 0.28 (37 °C).

With UAAGAGCAAUAUUACGUAGC, the “self-splicing fitness (ln)” value (30 °C) was -4.28 ± 0.31 and the “self-splicing fitness (ln)” value (37 °C) was -2.71 ± 0.28.

For the sequence UAAGAGCAAUAUUACGUAUA, the “self-splicing fitness (ln)” value runs as follows: (30 °C) -2.64 ± 0.26; (37 °C) -1.97 ± 0.25.

With UAAGAGCAAUAUUACGUCCC, for the setting “30 °C”, the “self-splicing fitness (ln)” value is -3.99 ± 0.42.

Consider UAAGAGCAAUAUUACGUGCA, for which the “self-splicing fitness (ln)” value reads like this: (30 °C) -2.09 ± 0.2; (37 °C) -0.84 ± 0.2.

For the sequence UAAUAGCAAUAUUACGAAGU, where the note is “37 °C”, the “self-splicing fitness (ln)” value was -1.55 ± 0.47.

In the case of UAAUAGCAAUAUUACGAGGA, the “self-splicing fitness (ln)” value is -3.68 ± 0.25 (30 °C) and -2.62 ± 0.16 (37 °C).

Consider UAAUAGCAAUAUUACGAGUA, for which the “self-splicing fitness (ln)” value was -2.31 ± 0.14 (30 °C) and -0.79 ± 0.11 (37 °C).

In the case of UAAUAGCAAUAUUACGAGUU, the “self-splicing fitness (ln)” value was -2.79 ± 0.23 (30 °C) and -2.31 ± 0.27 (37 °C).

UAAUAGCAAUAUUACGAUAC: under “30 °C”, the “self-splicing fitness (ln)” value was -3.78 ± 0.43.

As to UAAUAGCAAUAUUACGCACU, the “self-splicing fitness (ln)” value runs as follows: (30 °C) -1.16 ± 0.11; (37 °C) -1.02 ± 0.12.

For the sequence UAAUAGCAAUAUUACGCCAG, the “self-splicing fitness (ln)” value (30 °C) is -1.07 ± 0.2 and the “self-splicing fitness (ln)” value (37 °C) is -1.2 ± 0.32.

For UAAUAGCAAUAUUACGCGAU, the “self-splicing fitness (ln)” value is -3.2 ± 0.28 (30 °C) and -1.86 ± 0.24 (37 °C).

On to UAAUAGCAAUAUUACGGAAC, for which the “self-splicing fitness (ln)” value was -3.01 ± 0.2 (30 °C) and -0.714 ± 0.16 (37 °C).

As to UAAUAGCAAUAUUACGGCCU, the “self-splicing fitness (ln)” value (30 °C) was -1.16 ± 0.14 and the “self-splicing fitness (ln)” value (37 °C) is -0.77 ± 0.19.

As for UAAUAGCAAUAUUACGGUCU, the “self-splicing fitness (ln)” value (30 °C) is -2.75 ± 0.16 and the “self-splicing fitness (ln)” value (37 °C) was -2.49 ± 0.16.

As to UAAUAGCAAUAUUACGUAAU, the “self-splicing fitness (ln)” value (30 °C) was -3.25 ± 0.29 and the “self-splicing fitness (ln)” value (37 °C) is -2.52 ± 0.34.

Regarding UAAUAGCAAUAUUACGUAGA, the “self-splicing fitness (ln)” value was -3.52 ± 0.18 (30 °C) and -1.98 ± 0.17 (37 °C).

Consider UAAUAGCAAUAUUACGUAGU, for which the “self-splicing fitness (ln)” value is, setting by setting: (30 °C) -3.82 ± 0.19; (37 °C) -2.44 ± 0.23.

In the case of UAAUAGCAAUAUUACGUCGA, the “self-splicing fitness (ln)” value by setting is: (30 °C) -2.4 ± 0.17; (37 °C) -0.993 ± 0.16.

In the case of UAAUAGCAAUAUUACGUCUC, the “self-splicing fitness (ln)” value (30 °C) was -3.41 ± 0.26.

As for UAAUAGCAAUAUUACGUCUG, the “self-splicing fitness (ln)” value runs as follows: (30 °C) -0.694 ± 0.075; (37 °C) -0.276 ± 0.089.

Regarding UACAAGCAAUAUUACGAAAA, the “self-splicing fitness (ln)” value (30 °C) is -1.94 ± 0.19 and the “self-splicing fitness (ln)” value (37 °C) was -1.22 ± 0.15.

On to UACAAGCAAUAUUACGAAGA, for which the “self-splicing fitness (ln)” value by setting is: (30 °C) -2.08 ± 0.27; (37 °C) -2.11 ± 0.21.

For UACAAGCAAUAUUACGACGU, the “self-splicing fitness (ln)” value was -0.941 ± 0.07 (30 °C) and -0.409 ± 0.081 (37 °C).
